Test results: US10485854B2, “Method of reducing biofilms” (Lysando AG, priority 2010, dated 2019)

Legend:
[1] = tested on: P. aeruginosa PAO1p cells; assay: Antibacterial activity, 1 hour incubation with 100 μg/ml protein, residual colony count; settings: for antibacterial effect in words (reduction of cell numbers compared to the negative control): 100 μg/ml protein, room temperature; for antibacterial activity as the relative inactivation (%): exponentially growing cells, room temperature (Table 6); for antibacterial activity as the relative inactivation (%) / Reduction [%]: undialyzed protein 100 μg/ml; for Reduction [%]: room temperature (Table 7)
P. aeruginosa PAO1p = type: cell-based, Pseudomonas aeruginosa; settings: 1.315 μM endolysin + 0.5 mM EDTA
[2] = tested on: biofilm of the Staphylococcus aureus strain KS13; assay: Biofilm reduction, crystal violet assay; settings: 18 μg/well, 12 h; compared to the enzyme Lysostaphin

B1: POLY-gp144: fusion protein SEQ ID NO: 35: endolysin phiKZgp144 (SEQ ID NO: 1) with N-terminal peptide KRKKRKKRK (SEQ ID NO: 11) (protein)
chain: MGSKRKKRKKRKKVLRKGDRGDEVCQLQTLLNLCGYDVGKPDGIFGNNTFNQVVKFQKDNCLDSDGIVGKNTWAELFSKYSPPIPYKTIPMPTANKSRAAATPVMNAVENATGVRSQLLLTFASIESAFDYEIKAKTSSATGWFQFLTGTWKTMIENYGMKYGVLTDPTGALRKDPRISALMGAELIKENMNILRPVLKREPTDTDLYLAHFFGPGAARRFLTTGQNELAATHFPKEAQANPSIFYNKDGSPKTIQEVYNLMDGKVAAHRK
modifications: POLY-gp144
[1]
  antibacterial effect in words (reduction of cell numbers compared to the negative control): significant reduction
  antibacterial activity as the relative inactivation (%): 99.85±0.09%

B2: K8_pET32b: fusion protein SEQ ID NO: 48: endolysin SEQ ID NO: 1 with peptide KKKKKKKK (SEQ ID NO: 13) (protein)
chain: AMGSKKKKKKKKKVLRKGDRGDEVCQLQTLLNLCGYDVGKPDGIFGNNTFNQVVKFQKDNCLDSDGIVGKNTWAELFSKYSPPIPYKTIPMPTANKSRAAATPVMNAVENATGVRSQLLLTFASIESAFDYEIKAKTSSATGWFQFLTGTWKTMIENYGMKYGVLTDPTGALRKDPRISALMGAELIKENMNILRPVLKREPTDTDLYLAHFFGPGAARRFLTTGQNELAATHFPKEAQANPSIFYNKDGSPKTIQEVYNLMDGKVAAHRK
modifications: K8_pET32b
[1]
  Reduction [%]: 99%

B3: pK2KZ144_pET32b_mod3: fusion protein SEQ ID NO: 49: endolysin SEQ ID NO: 1 with 38-residue linker-containing peptide SEQ ID NO: 28 (protein)
chain: AMGSKRKKRKKRKRGSGSGKRKKRKKRKRGSGSGKRKKRKKRKKVLRKGDRGDEVCQLQTLLNLCGYDVGKPDGIFGNNTFNQVVKFQKDNCLDSDGIVGKNTWAELFSKYSPPIPYKTIPMPTANKSRAAATPVMNAVENATGVRSQLLLTFASIESAFDYEIKAKTSSATGWFQFLTGTWKTMIENYGMKYGVLTDPTGALRKDPRISALMGAELIKENMNILRPVLKREPTDTDLYLAHFFGPGAARRFLTTGQNELAATHFPKEAQANPSIFYNKDGSPKTIQEVYNLMDGKVAAHRK
modifications: pK2KZ144_pET32b_mod3
[1]
  Reduction [%]: 99.9%

B4: (POLY)^2-gp188: fusion protein SEQ ID NO: 40: endolysin SEQ ID NO: 2 with peptide SEQ ID NO: 21 (protein)
chain: MGSKRKKRKKRKRSKRKKRKKRKNFRTKNGYRDLQALVKELGLYTGQIDGVWGKGTSSSTETLLRGYAEVVGKNTGGIGLPTTSDASGYNVITALQRNLAFLGLYSLTVDGIWGNGTLSGLDKAFEVYKERYRTPTYDIAWSGKVSPAFTAKVKDWCGVHVPNHRAPHWLMACMAFETGQTFSPSIKNAAGSEAYGLIQFMSPAANDLNVPLSVIRSMDQLTQLDLVFKYFEMWMKRGKRYTQLEDFYLTIFHPASVGKKADEVLFLQGSKAYLQNKGFDVDKDGKITLGEISSTLYTTYYKGLLPENRHVISY
modifications: (POLY)2-gp188
[1]
  antibacterial effect in words (reduction of cell numbers compared to the negative control): significant reduction
  antibacterial activity as the relative inactivation (%): 98.9 ± 0.4%

B5: ELgp188: unmodified modular endolysin of Pseudomonas aeruginosa phage EL, SEQ ID NO: 2 (protein)
chain: MNFRTKNGYRDLQALVKELGLYTGQIDGVWGKGTSSSTETLLRGYAEVVGKNTGGIGLPTTSDASGYNVITALQRNLAFLGLYSLTVDGIWGNGTLSGLDKAFEVYKERYRTPTYDIAWSGKVSPAFTAKVKDWCGVHVPNHRAPHWLMACMAFETGQTFSPSIKNAAGSEAYGLIQFMSPAANDLNVPLSVIRSMDQLTQLDLVFKYFEMWMKRGKRYTQLEDFYLTIFHPASVGKKADEVLFLQGSKAYLQNKGFDVDKDGKITLGEISSTLYTTYYKGLLPENRHVISY
modifications: ELgp188
[1]
  antibacterial effect in words (reduction of cell numbers compared to the negative control): do not reduce cell numbers significantly
  antibacterial activity as the relative inactivation (%): 10 ± 13%

B6: PKPSP3gp10: fusion protein SEQ ID NO: 53: endolysin PSP3gp10 (SEQ ID NO: 8) with peptide SEQ ID NO: 11 (protein)
chain: MGSKRKKRKKRKPVINTHQNIAAFLDMLAYSEGTANHPLTKNRGYDVIVTGFDGSPEIFTDYSDHPFAHGRPPKVFNRRGEKSTASGRYQQLYIFWPHYKKQLALPDFSPLSQDKLAIQLIRERGAIDDIRAGRIERAVSRCRNIWASLPGAGYGQREHSLEKLVTVWRTAGGVMA
modifications: PKPSP3gp10
P. aeruginosa PAO1p
  interaction of EDTA with the endolysin: synergistically

B7: KRK_6_pET32b: fusion protein SEQ ID NO: 44: endolysin SEQ ID NO: 1 with peptide KRKKRK (SEQ ID NO: 10) (protein)
chain: AMGSKRKKRKKVLRKGDRGDEVCQLQTLLNLCGYDVGKPDGIFGNNTFNQVVKFQKDNCLDSDGIVGKNTWAELFSKYSPPIPYKTIPMPTANKSRAAATPVMNAVENATGVRSQLLLTFASIESAFDYEIKAKTSSATGWFQFLTGTWKTMIENYGMKYGVLTDPTGALRKDPRISALMGAELIKENMNILRPVLKREPTDTDLYLAHFFGPGAARRFLTTGQNELAATHFPKEAQANPSIFYNKDGSPKTIQEVYNLMDGKVAAHRK
modifications: KRK_6_pET32b
[1]
  Reduction [%]: 99.9%

B8: (POLY)^2-gp144: fusion protein SEQ ID NO: 36: endolysin SEQ ID NO: 1 with peptide SEQ ID NO: 21 (protein)
chain: MGSKRKKRKKRKRSKRKKRKKRKKVLRKGDRGDEVCQLQTLLNLCGYDVGKPDGIFGNNTFNQVVKFQKDNCLDSDGIVGKNTWAELFSKYSPPIPYKTIPMPTANKSRAAATPVMNAVENATGVRSQLLLTFASIESAFDYEIKAKTSSATGWFQFLTGTWKTMIENYGMKYGVLTDPTGALRKDPRISALMGAELIKENMNILRPVLKREPTDTDLYLAHFFGPGAARRFLTTGQNELAATHFPKEAQANPSIFYNKDGSPKTIQEVYNLMDGKVAAHRK
modifications: (POLY)2-gp144
[1]
  antibacterial effect in words (reduction of cell numbers compared to the negative control): significant reduction
  antibacterial activity as the relative inactivation (%): 99.98±0.02%

B9: POLY-gp188: fusion protein SEQ ID NO: 39: endolysin ELgp188 (SEQ ID NO: 2) with peptide SEQ ID NO: 11 (protein)
chain: MGSKRKKRKKRKNFRTKNGYRDLQALVKELGLYTGQIDGVWGKGTSSSTETLLRGYAEVVGKNTGGIGLPTTSDASGYNVITALQRNLAFLGLYSLTVDGIWGNGTLSGLDKAFEVYKERYRTPTYDIAWSGKVSPAFTAKVKDWCGVHVPNHRAPHWLMACMAFETGQTFSPSIKNAAGSEAYGLIQFMSPAANDLNVPLSVIRSMDQLTQLDLVFKYFEMWMKRGKRYTQLEDFYLTIFHPASVGKKADEVLFLQGSKAYLQNKGFDVDKDGKITLGEISSTLYTTYYKGLLPENRHVISY
modifications: POLY-gp188
[1]
  antibacterial effect in words (reduction of cell numbers compared to the negative control): significant reduction
  antibacterial activity as the relative inactivation (%): 98.0±0.2%

B10: R9_pET32b: fusion protein SEQ ID NO: 47: endolysin SEQ ID NO: 1 with peptide RRRRRRRRR (SEQ ID NO: 12) (protein)
chain: AMGSRRRRRRRRRKVLRKGDRGDEVCQLQTLLNLCGYDVGKPDGIFGNNTFNQVVKFQKDNCLDSDGIVGKNTWAELFSKYSPPIPYKTIPMPTANKSRAAATPVMNAVENATGVRSQLLLTFASIESAFDYEIKAKTSSATGWFQFLTGTWKTMIENYGMKYGVLTDPTGALRKDPRISALMGAELIKENMNILRPVLKREPTDTDLYLAHFFGPGAARRFLTTGQNELAATHFPKEAQANPSIFYNKDGSPKTIQEVYNLMDGKVAAHRK
modifications: R9_pET32b
[1]
  Reduction [%]: 99%

B11: PK-Lysostaphin: fusion protein SEQ ID NO: 142: bacteriocin Lysostaphin (SEQ ID NO: 87) with peptide SEQ ID NO: 11 (protein)
chain: AMGKRKKRKKRKGSAHEHSAQWLNNYKKGYGYGPYPLGINGGMHYGVDFFMNIGTPVKAISSGKIVEAGWSNYGGGNQIGLIENDGVHRQWYMHLSKYNVKVGDYVKAGQIIGWSGSTGYSTAPHLHFQRMVNSFSNSTAQDPMPFLKSAGYGKAGGTVTPTPNTGWKTNKYGTLYKSESASFTPNTDIITRTTGPFRSMPQSGVLKAGQTIHYDEVMKQDGHVWVGYTGNSGQRIYLPVRTWNKSTNTLGVLWGTIKLVPRGS
modifications: PK-Lysostaphin
[2]
  reduction of biofilm (crystal violet, absorption 590 nm): massive reduction

B12: PSP3gp10: unmodified globular endolysin of Salmonella typhimurium phage PSP3, SEQ ID NO: 8 (protein)
chain: MPVINTHQNIAAFLDMLAYSEGTANHPLTKNRGYDVIVTGFDGSPEIFTDYSDHPFAHGRPPKVFNRRGEKSTASGRYQQLYIFWPHYKKQLALPDFSPLSQDKLAIQLIRERGAIDDIRAGRIERAVSRCRNIWASLPGAGYGQREHSLEKLVTVWRTAGGVMA
modifications: PSP3gp10
P. aeruginosa PAO1p
  interaction of EDTA with the endolysin: synergistically
